In this test the target is Mtb ClpB M-domain motif 2 protein (residues 467–518) (Mycobacterium tuberculosis, UniProt P9WPD1 467-518). Put plainly: ITC.
Mtb ClpB M-domain motif 2 protein (residues 467–518), sequence (P9WPD1 467-518): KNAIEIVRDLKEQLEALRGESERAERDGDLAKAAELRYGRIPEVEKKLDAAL

B1: Mtb DnaK NBD (residues 1–359) (domain or fragment)
chain: MARAVGIDLGTTNSVVSVLEGGDPVVVANSEGSRTTPSIVAFARNGEVLVGQPAKNQAVTNVDRTVRSVKRHMGSDWSIEIDGKKYTAPEISARILMKLKRDAEAYLGEDITDAVITTPAYFNDAQRQATKDAGQIAGLNVLRIVNEPTAAALAYGLDKGEKEQRILVFDLGGGTFDVSLLEIGEGVVEVRATSGDNHLGGDDWDQRVVDWLVDKFKGTSGIDLTKDKMAMQRLREAAEKAKIELSSSQSTSINLPYITVDADKNPLFLDEQLTRAEFQRITQDLLDRTRKPFQSVIADTGISVSEIDHVVLVGGSTRMPAVTDLVKELTGGKEPNKGVNPDEVVAVGAALQAGVLKGE
With B1, the “stoichiometry N” value was ~1.

A word on the stoichiometry N: it is a count of units in the complex or per binding partner.

The values above are taken from paper PMC8209680 (Cell reports, 2021).
